# Positions count from the first letter of the chain named.
# B1: C81F5 (antibody, V domains shown)
# VH: QVQLVESGGGVVQPGRSLRLSCAASGFTFSNSGMHWVRQAPGKGLEWVAVISYDGSHKYYADSVKGRFTISRDNSKNTLYLQMNTLRAEDTAVYYCAKEESAVAGTGVPYYYYYYMDVWGKGTTVTVSS
# VL: not shown
# B2: C81H5 (antibody, V domains shown)
# VH: QVQLVQSGAEVRKPGASVKVSCKVSEYTLTELSIHWVRQAPGKGLEWMGGFDPEDGETIYAQKFQGRVTMTEDTSTDTAYMELSSLRSEDTAVYYCATAPAYCPGGVCPRGWFDPWGQGTLVTVSS
# VL: QSALTQPRSVSGSPGQSVTISCTGTSSDVGGYNYVSWYQQHPGKAPKLMIYDVSKRPSGVPDRFSGSKSGNTASLTISGLQAEDEADYYCCSYAGSYTYVFGTGTKVTVL
# B3: G32L7 (antibody, V domains shown)
# VH: EVQLLESGGGSVQPGGSLRLSCAASGFTFSSYAMSWVRQAPGKGLEWVSVISGSGGSTYYADSVKGRFTISRDNSKNTLYLQMNSLRAEDTAVYYCAKAERITMLVVVTLIDYWGQGTLVTVSS
# VL: QSVLTQPPSVSAAPGQKVTISCSGSSSNIGNNYVSWYQQLPGTAPKLLIYDNNKRPSGIPDRFSGSKSGTSATLGITGLQTGDEADYYCGTWDSSLSAVVFGGGTKLTVL
# B4: G32L2 (antibody, V domains shown)
# VH: QVQLVESGGGVVQPGTSLRLSCAASGFTFSNYDIHWVRQAPGKGLEWVAVISYDGSNKYYADSVKGRFTISRDNSKNTLYLQMNSLRAEDTAVYYCAKDLVLRYFDWLFDGPDYWGQGTLVTVSS
# VL: SYELTQPPSVSVSPGQTARITCSGDALPKKYAYWYQQKSGQAPVLVIYEDSKRPSGIPERFSGSSSGTMATLTISGAQVEDEADYYCYSTDSSGNHGVFGGGTKLTVL
# B5: C81G11 (antibody, V domains shown)
# VH: QVQLQESGPGLVKPSGTLSLTCAVSGGSISSSNWWSWVRQPPGKGLEWIGEIYHSGNTNYNPSLTSRVTLSVDKSKNQFSLKLSSVTAADTALYYCAGRFCGSTSCPNWFDPWGQGTLVTVSS
# VL: QSALTQPASVSGSPGQSITISCTGTSSDVGSYNLVSWYQQHPGKAPKLMIYEGSKRPSGVSNRFSGSKSGNTASLTISGLQAEDEADYYCCSYAGSSTWVFGGGTKLTVL
# B6: C12I5 (antibody, V domains shown)
# VH: QVQLQESGPGLVKPSGTLSLTCAVSGGSISSSNWWSWVRQPPGKGLEWIGEIYHSGSTNYNPSLKSRVTISVDKSKNQFSLKLSSVTAADTAVYYCARGWGSSSYWFDPWGQGTLVTVSS
# VL: B5 VL
# B7: C12I11 (antibody, V domains shown)
# VH: QVQLQESGPGLVKPSGTLSLTCAISGGSISSSNWWSWVRQPPGKGLEWIGEIYHSGSTNYNPSLKSRVTISVDKSKNQFSLKLSSVTAADTAVYYCARGALVPAARLNAFDIWGQGTMVTVSS
# VL: B5 VL with W99Y, G103T, L107V
# B8: C81A3 (antibody, V domains shown)
# VH: QVQLQESGPGLVKPSGTLSLTCAVSGGSISSSNWWSWVRQPPGKGLEWIGEIYHSGSTNYNPSLKSRVTISVDKSKNQFSLKLSSVTAADTAVYYCARRYCSGGSCSGFDYWGQGTLVTVSS
# VL: B5 VL with Q40H, S96F
# B9: C12J11 (antibody, V domains shown)
# VH: B6 VH with R98I, G99R, W100A, G101S, S102G, S103Y, S104Y, Y105N
# VL: B5 VL with C91Y
# B10: C12D6 (antibody, V domains shown)
# VH: QLQLQETGPGLVKPSGTLSLTCAVSGDSISSSDWWTWVRQPPGKGLEWIGEIYHSGSTNYNPSLKSRVTISVDKSKNQFSLKLSSVTAADTAVYYCARRGRAASERGTGNFDYWGQGTLVTVSS
# VL: B5 VL with G53V
# B11: G32L6 (antibody, V domains shown)
# VH: QVQLVQSGAEVKKPGASVKVSCKVSGYTLTELSMHWVRQAPGKGLEWMGGFDPEDGETIYAQKFQGRVTMTEDTSTDTAYMELSTLRSEDTAVYYCATAPAVAGTFENYYYYYGLDVWGQGTTVTVSS
# VL: not shown
# B12: C29C2 (antibody, V domains shown)
# VH: EVQLVQSGAEVKKPGESLKISCKGSGYSFTSYWIGWVRQMPGKGLEWMGIIYPGDSDTRYSPSFQGQVTISADKSISTAYLQWSSLKASDTAMYYCARLPVSTHPLYYYFGMDVWGQGTTVTVSS
# VL: not shown
# B13: C81B10 (antibody, V domains shown)
# VH: QLQLQESGPGLVKPSQTLSLTCTVSGGSISSGDYYWSWIRQPPGKGLEWIGYIYYSGSTYYNPSLKSRVTISVDTSKNQFSLKLSSVTAADTAVYYCARVRGTYYYVSGSYYPRPLYYYYMDVWGKGTTVTVSS
# VL: not shown
# B14: C41N3 (antibody, V domains shown)
# VH: EVQLVESGGGLVQPGRSLRLSCAASGFTFDDYAMHWVRQAPGKGLEWVSGISWQSGSIGYADSVKGRFTISRDNAKNSLYLQMNSLRAEDTALYYCAKDPGYDSSGYYYDYWGQGALVTVSS
# VL: not shown
# B15: C12C6 (antibody, V domains shown)
# VH: QVQLVESGGGVVQPGRSLRLSCAASGFTFSSYAMHWVRQAPGKGLEWVAVISYDGSNKHYADSVKGRFTISRDNSKNTLYLQMNSLRAEDTAVYYCARDPQYCSSTSCSMGVGWFDPWGQGTLVTVSS
# VL: SYELTQPPSVSVAPGKTARITCGGNNIGSKSVHWYQQKPGQAPVLVIYYDSDRPSGIPERFSGSNSGNTATLTISRVEAGDEADYYCQVWDSSSDHAYWVFGGGTKLTVL
# B16: C83B6 (antibody, V domains shown)
# VH: EVQLVESGGGLVKPGGSLRLSCAASGFTFSSYSMNWVRQAPGKGLEWVSYISSSSSTIYYADSVKGRFTISRDNAKNSLYLQMNSLRDEDTAVYYCARDRGGYGPYYYGMDVWGQGTTVTVSS
# VL: not shown
# B17: C12D1 (antibody, V domains shown)
# VH: EVQLVQSGAEVIKPGESLKISCKGSGYSFTSYWIGWVRQMPGKGLEWMGIIYPGDSDTRYSPSFQGQVTISADKSISTAYLQWSSLKASDTAIYYCARLGGSVTNIEFIDYWGQGTLVTVSS
# VL: not shown
# B18: C81G9 (antibody, V domains shown)
# VH: EVQLVESGGGLVQPGGSLRLSCAASGFTFSSYSVNWVRQAPGKGLEWVSYISSSSLTIYYADSVKGRFIISRDNAKNSLYLQMNSLRDEDTAVYHCAREGPSSSWFSYYYMDVWGKGTTVTVSS
# VL: QSALTQPASVSGSPGQSITISCTGTSSDVGSYNLVSWYQQHPGKAPKLMIYEGSKRPSGVSNRFSGSKSGNTASLTISGLQAEDEAEYYCCSYAGSSTSPYVFGTGTKVTAL
# B19: C53E4 (antibody, V domains shown)
# VH: QVQLVQSGAEVKKPGASVKVSCKASGYTYTSYGISWVRQAPGRGLEWMGWISAYNGNTNYAQKLQGRVTMTTDTSTSTAYMELRSLRSDDTAVYYCARDQGLWYYYDSSGFALDYWGQGTLVTVSS
# VL: EIVLTQSPATLSLSPGERATLSCRASQSVSSYLAWYQQKPGQAPRLLIYDASNRATGIPARFSGSGSGTDFTLTISSLEPEDFAVYYCQQRSNWPRYTFGQGTKLEIK
# B20: C53E6 (antibody, V domains shown)
# VH: EVQLVESGGGLVKPGGSLKLSCAASGFTFSSYSMNWVRQAPGKGLEWVSSISSSSSYIYYADSVKGRFTISRDNAKNSLYLQMNSLRAEDTAVYYCARASYDFWSGQDHWFDPWGQGTLVTVSS
# VL: B19 VL with R61K, R96P, Y97I, K104R
# B21: C93D6 (antibody, V domains shown)
# VH: EVQLVESGGGLVKPGGSLRLSCAASGFTFSSYSMNWVRQAPGKGLEWVSSISSSSSYIYYADSVKGRFTISRDNAKNSLYLQMNSLRAEDTAVYYCASDLMEDYDFLSGSATSPFDYWGQGTLVTVSS
# VL: not shown
# B22: C163E5 (antibody, V domains shown)
# VH: QVQLQESGPGLVKPSETLSLTCTVSGASIRSFHWSWIRQPAGKGLEWIGRLLTTGSTNYNRSLKSRVTMSVDTSKNQFSLKLSSVTAADTAVYYCSRGTEMNMEVPGVVTGSEFFDYWGQGTLVTVSS
# VL: EIVLTQSPATLSLSPGERATLSCRASQSVSSYLAWYQRKPGQAPRLLIYDASNRATGIPARFSGSGSGTDFTLTISSLEPEDFAVYYCQQRRNWPETFGQGTKLEIK
# B23: C12B10 (antibody, V domains shown)
# VH: EVQLVESGGGLVQPGGSLRLSCAASGFTFSSYAMHWVRQAPGKGLEYVSAINSYGGSTYYANSVKGRFTISRDNSKNTLYLQMGSLRAEDMAVYYCAREVQGVATMDGAFDIWGQGTMVTVSS
# VL: SYELTQPPSVSVAPGKTARITCGGNNIGSKSVHWYQQKPGQAPVLVIYYDSDRPSGIPERFSGSNSGNTATLTISRVEAGDEADYYCQVWDSSSDPHWVFGGGTKLTVL
# B24: C83A7 (antibody, V domains shown)
# VH: QVQLQESGPGLVKPSETLSLTCTVSGGSVSSGSYYWSWIRQPPGKGLEWIGYIYYSGRTNYNPSLKSRVTISVDTSKNQFSLKLSSVTAADTAVYYCARTVITMIVGNWYFDLWGRGTLVTVSS
# VL: not shown
# B25: C12E9 (antibody, V domains shown)
# VH: QVQLVQSGAEVKKPGSSVKVSCKASGGTFSSYAISWVRQAPGQGLEWMGGIIPIFGTASYAQKFQGRVTITADESTSTAYMELSSLRSEDTAVYYCARGSVGLGGDCYQCGYYFDYWGQGTLVTVSS
# VL: not shown
# B26: G32Q2 (antibody, V domains shown)
# VH: EVQLLESGGGLVQPGGSLRLSCAASGFTFSNYAMSWVRQAPGKGLEWVSAISGSGSTTYYADSVKGRFTISRDNSKNTLFLQVNSLRAEDTAVYYCAKGERIIMMVVLTLFDYWGQGTLVTVSS
# VL: QSVLTQPPSVSAAPGQKVTISCPGSSSNIGKNYVSWYQQLPGTAPKLLIYDNNKRPSGIPDRFTGSKSGTSATLDITGLQTGDEADYYCGTWDSSLSAGWVFGGGTKLTVL
# Molecular target: SARS-CoV-2 S ectodomain trimer, prefusion-stabilized, 2P variant (Wrapp et al., 2020) (SARS-CoV-2, Wuhan-Hu-1, UniProt P0DTC2, stabilised)
row,Binder,binding result
1,B1,binds
2,B2,binds
3,B3,binds
4,B4,binds
5,B5,binds
6,B6,binds
7,B7,binds
8,B8,binds
9,B9,binds
10,B10,binds
11,B11,binds
12,B12,binds
13,B13,binds
14,B14,binds
15,B15,binds
16,B16,binds
17,B17,binds
18,B18,binds
19,B19,binds
20,B20,binds
21,B21,binds
22,B22,binds
23,B23,binds
24,B24,binds
25,B25,binds
26,B26,binds
